For experiment [1], the target named is T1, HPV45型衣壳蛋白L1病毒样颗粒(VLP)抗原 (HPV 45型) (UniProt P36741).
T1 sequence: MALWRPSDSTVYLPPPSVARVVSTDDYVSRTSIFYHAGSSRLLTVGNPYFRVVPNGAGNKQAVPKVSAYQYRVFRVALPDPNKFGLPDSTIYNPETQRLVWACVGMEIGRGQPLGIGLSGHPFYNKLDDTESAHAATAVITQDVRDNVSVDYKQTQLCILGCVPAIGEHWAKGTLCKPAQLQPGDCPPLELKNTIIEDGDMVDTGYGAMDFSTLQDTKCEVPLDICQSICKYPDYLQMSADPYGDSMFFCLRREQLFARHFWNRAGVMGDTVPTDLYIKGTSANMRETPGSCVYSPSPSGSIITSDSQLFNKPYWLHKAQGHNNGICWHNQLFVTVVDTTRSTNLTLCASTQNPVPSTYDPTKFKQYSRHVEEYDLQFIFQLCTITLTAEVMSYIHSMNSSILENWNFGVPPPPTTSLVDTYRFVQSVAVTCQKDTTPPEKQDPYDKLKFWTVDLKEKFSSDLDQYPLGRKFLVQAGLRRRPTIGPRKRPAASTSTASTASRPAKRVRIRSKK
Put plainly: sandwich ELISA, rabbit pAb R163 capture 1:500, mAb 1:20000; antigen 13.3 ug/ml, 2.5-fold series, step 9. On the technique in general: ELISA stands for enzyme-linked immunosorbent assay.

The target in experiment [2] is T1, HPV45型衣壳蛋白L1病毒样颗粒(VLP)抗原 (HPV 45型). As to the kind of experiment: sandwich ELISA, rabbit pAb R163 capture 1:500, mAb 1:20000; antigen 13.3 ug/ml, 2.5-fold series, step 6.

These results are taken from patent CN117466995A (YIDAO BIOTECHNOLOGY SUZHOU CO LTD, dated 2024).

Values joined by “and” are separate entries in the source; they are usually repeats but may differ in a detail not shown here. Identical values can stand only once.

B1: 杂交瘤细胞株7A5(CGMCC NO:45706)分泌的鼠源单克隆抗体 (antibody, V domains shown)
VH: QPGAELVKPGASVKLSCKASGYTFTSYWMHWVKQRPGQGLEWIGEINPSNGHTNYNEKFKSKATLTVDKSSSTAYMQLSSLTSEDSAVYYCAPCYGSSYDYYAMDYWGQGTSVTVSS
VL: DIVLTQSPASLAVSLGQRATISCRASQSVSTSSYSYMHWYQQKPGQPPKLLIKYASNLESGVPARFSGSGSGTDFTLNIHPVEEEDTATYYCQHSWEIPYTFGGGTKLEIK
notes: also called 鼠单抗7A5; 抗体7A5
As to B1, the OD was 0.106 OD in experiment [1]; 0.614 OD and 0.773 OD in experiment [2].

B2: 杂交瘤细胞株11G1(CGMCC NO:45707)分泌的鼠源单克隆抗体 (antibody, V domains shown)
VH: QVQLQQPGAELVKPGASVKLSCKASGYTFTSYWMHWVKRRPGQGLEWIGEINPSNGLTNYNEKFKSKGTLTVDKSSSAAFMHLSSLTSEDSAVYYCARFHGSDLYAMDYWGQGTSVTVSS
VL: DIVLTQSPASLAVSLGQRATISCRASQSVSTSSYSYMHWYQQKPGQPPKLLIKYASNLESGVPARFSGSGSGTDFTLNIHPVEEEDTATYYCQHSWEIPYTFGGGTKLEIK
notes: also called 鼠单抗11G1; 抗体11G1
B2: the OD in experiment [2] is 0.364 OD and 0.447 OD.
